Data set [1] relates to T1, VEGF165 (soluble) (human), P15692-4.
T1 sequence: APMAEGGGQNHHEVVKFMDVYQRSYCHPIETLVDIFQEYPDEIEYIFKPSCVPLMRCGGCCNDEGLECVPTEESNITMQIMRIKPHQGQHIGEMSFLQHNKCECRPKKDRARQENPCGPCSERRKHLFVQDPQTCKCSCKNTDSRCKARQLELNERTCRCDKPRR
In words: F-EMSA. The settings on record: 1 mM Mg2+, 10 mM HEPES pH 7.9, 125 mM NaCl, 25 mM KCl, 1 mM MgCl2, F-EMSA at room temperature for 2 h, 5% PAGE at 4 C, flow cytometry in the same buffer. On the technique in general: A gel shift assay detects complexes by their altered migration in electrophoresis.

The next data set deals with PDGF-A (human) (UniProt P04085). In words: flow cytometry, yeast display. The settings on record: 10 mM HEPES pH 7.9, 125 mM NaCl, 25 mM KCl, 1 mM MgCl2; F-EMSA at room temperature for 2 h, 5% PAGE at 4 C; flow cytometry in the same buffer. (A flow cytometer gives signals particle by particle.)

pKd: −log10 of the molar value.

Usually pKd stands for the negative decadic logarithm of the Kd, by convention in mol/L. Read a low pKd as a large Kd. In the case of “AAAGCCCACTGCATAGAGGCCGCTCAACATGCGAGCCGGT [hVap2_T2160]”, the pKd in data set [1] (same value is also printed for SL12) was 6.97.
As for “CAGAGCAGGGCGCCGTGTCGCATAGTGTTGTCACTCCCCTGGAGGTCCATGCGAAATATG [hPAap1]”, the pKd with PDGF-A (human) was 5.40.
Take “TAGCCCACTGCATAGAGGTAGCCACGTATGTGGGTGTTACCCATTCGTAGCTACCGGTGA [hVap1 full-length (100 nt)]”: the negative-log Kd (pKd) in data set [1] was 8.85.

The values are drawn from publication PMC3968096.
